Results taken from patent publication US6399326 (Harvard, dated 2002).

What was measured:
[1] = biological target: T1, PTP-NP (on cells transfected with PTP-NP) (mouse, UniProt P80560 28-1001); assay: NP-AP probe on cells transfected with PTP-NP (data not shown)
T1 construct: also called PTP-NP type 1; neural and pancreatic receptor protein tyrosine phosphatase
T1 chain: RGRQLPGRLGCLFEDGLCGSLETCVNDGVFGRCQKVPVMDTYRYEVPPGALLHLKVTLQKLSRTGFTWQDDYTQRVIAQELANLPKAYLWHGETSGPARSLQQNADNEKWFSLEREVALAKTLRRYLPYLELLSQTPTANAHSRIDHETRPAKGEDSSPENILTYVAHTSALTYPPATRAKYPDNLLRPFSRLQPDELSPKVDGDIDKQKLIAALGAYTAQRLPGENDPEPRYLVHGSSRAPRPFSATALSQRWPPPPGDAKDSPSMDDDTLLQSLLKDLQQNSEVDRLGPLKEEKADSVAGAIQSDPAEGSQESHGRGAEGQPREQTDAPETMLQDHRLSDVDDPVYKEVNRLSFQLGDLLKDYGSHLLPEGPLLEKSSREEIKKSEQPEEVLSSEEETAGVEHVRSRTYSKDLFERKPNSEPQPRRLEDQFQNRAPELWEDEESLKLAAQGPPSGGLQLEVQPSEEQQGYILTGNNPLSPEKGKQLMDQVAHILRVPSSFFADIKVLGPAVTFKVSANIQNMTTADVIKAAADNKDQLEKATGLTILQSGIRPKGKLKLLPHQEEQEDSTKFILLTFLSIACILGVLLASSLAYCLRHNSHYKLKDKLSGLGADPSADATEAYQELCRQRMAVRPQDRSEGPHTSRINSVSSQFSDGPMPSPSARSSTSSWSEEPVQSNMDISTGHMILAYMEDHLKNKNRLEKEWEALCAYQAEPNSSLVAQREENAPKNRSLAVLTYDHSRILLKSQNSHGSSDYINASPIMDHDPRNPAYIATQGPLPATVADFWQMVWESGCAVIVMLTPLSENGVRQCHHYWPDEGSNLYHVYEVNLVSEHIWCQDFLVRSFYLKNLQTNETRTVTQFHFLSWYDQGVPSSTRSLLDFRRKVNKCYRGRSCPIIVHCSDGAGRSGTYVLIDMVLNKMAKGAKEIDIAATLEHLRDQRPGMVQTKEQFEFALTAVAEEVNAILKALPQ

[2] = biological target: T2, PTP-NP extracellular domain marked with an immunoglobulin tag (mouse, UniProt P80560 28-600); assay: in vitro binding of the two differently tagged extracellular domains (data not shown)
T2 construct: not shown: immunoglobulin tag
T2 chain: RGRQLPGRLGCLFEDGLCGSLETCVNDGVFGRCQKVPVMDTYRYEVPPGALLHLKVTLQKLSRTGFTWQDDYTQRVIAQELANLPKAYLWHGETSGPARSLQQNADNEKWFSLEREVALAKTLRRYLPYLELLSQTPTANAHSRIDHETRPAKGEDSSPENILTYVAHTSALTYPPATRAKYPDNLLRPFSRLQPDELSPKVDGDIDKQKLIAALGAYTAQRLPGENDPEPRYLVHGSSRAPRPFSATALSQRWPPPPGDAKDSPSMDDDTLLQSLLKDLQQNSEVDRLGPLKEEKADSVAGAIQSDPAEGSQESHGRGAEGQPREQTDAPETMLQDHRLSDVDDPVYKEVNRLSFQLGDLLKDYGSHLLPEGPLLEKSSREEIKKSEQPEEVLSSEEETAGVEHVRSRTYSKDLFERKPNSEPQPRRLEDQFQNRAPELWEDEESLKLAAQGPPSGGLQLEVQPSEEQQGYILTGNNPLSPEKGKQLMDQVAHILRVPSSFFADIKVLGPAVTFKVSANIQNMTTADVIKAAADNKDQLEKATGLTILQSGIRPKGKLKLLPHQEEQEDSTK

B1: NP-AP fusion protein (extracellular domain of PTP-NP fused to an alkaline phosphatase tag) (other)
chain: RGRQLPGRLGCLFEDGLCGSLETCVNDGVFGRCQKVPVMDTYRYEVPPGALLHLKVTLQKLSRTGFTWQDDYTQRVIAQELANLPKAYLWHGETSGPARSLQQNADNEKWFSLEREVALAKTLRRYLPYLELLSQTPTANAHSRIDHETRPAKGEDSSPENILTYVAHTSALTYPPATRAKYPDNLLRPFSRLQPDELSPKVDGDIDKQKLIAALGAYTAQRLPGENDPEPRYLVHGSSRAPRPFSATALSQRWPPPPGDAKDSPSMDDDTLLQSLLKDLQQNSEVDRLGPLKEEKADSVAGAIQSDPAEGSQESHGRGAEGQPREQTDAPETMLQDHRLSDVDDPVYKEVNRLSFQLGDLLKDYGSHLLPEGPLLEKSSREEIKKSEQPEEVLSSEEETAGVEHVRSRTYSKDLFERKPNSEPQPRRLEDQFQNRAPELWEDEESLKLAAQGPPSGGLQLEVQPSEEQQGYILTGNNPLSPEKGKQLMDQVAHILRVPSSFFADIKVLGPAVTFKVSANIQNMTTADVIKAAADNKDQLEKATGLTILQSGIRPKGKLKLLPHQEEQEDSTK
notes: Used as unpurified supernatant of transfected COS cells; also called NP-AP probe; not shown: limits and
B1: no binding [1]; no binding [2].
